Target: budding yeast condensin holoenzyme (heteropentamer of Smc2, Smc4, Brn1, Ycg1 and Ycs4) (budding yeast) (UniProt P38989)
Assay: SEC; Superose 6 10/300 gel filtration as the last step of purification after nickel-NTA and StrepTactin; self-association of the heteropentamer (monomer) into a multimer

percent multimeric in the Streptactin-purified fraction: 30%
Substance: budding yeast condensin holoenzyme (heteropentamer of Smc2, Smc4, Brn1, Ycg1 and Ycs4), P38989 1-1170; Q12267 1-1418; P38170 1-754; Q06680 1-1035; Q06156 1-1176
